“And” between values parts separate entries of the source, which are not always exact repeats. Equal entries are not always repeated.

Assay [1] has as its target T1, human SIRPG-His fusion protein (human, UniProt Q9P1W8-2 29-327, limits assumed).
T1 construct: also called SIRP gamma; not shown: His tag
Briefly: ELISA, binding to human SIRPG-His fusion protein. For orientation: An ELISA detects its analyte on a solid surface through an enzyme-linked reagent.

For assay [2], the target named is T2, human SIRP-alpha variant 2 (V2) on monocytes and macrophages of V2 homozygous donors (human, UniProt Q5TFQ8 30-145).
T2 construct: the whole native protein stood on the cells; The definitions name GenBank CAA71403.1 for the V2 form (residues 30-504 mature); also called SIRPa V2
T2 sequence (Q5TFQ8 other isoform, or with tags, fused parts or gaps mutant): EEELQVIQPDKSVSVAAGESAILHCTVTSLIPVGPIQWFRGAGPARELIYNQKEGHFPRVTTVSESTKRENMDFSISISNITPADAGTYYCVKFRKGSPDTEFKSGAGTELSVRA
The experiment in a line: flow cytometry on monocytes; blocking of AF488-conjugated human CD47-Fc binding. The method, then: (§1) Blocking human CD47 binding on monocytes isolated from human donors. Human peripheral blood mononuclear cells (PBMCs) were isolated from human blood using Ficoll. 5×10⁵ cells were incubated with 1 ug/ml of AF488-conjugated human CD47-Fc fusion protein in the absence or presence of increasing concentrations of hHu1H9-G1. Binding of CD47 on the cells was measured and analyzed by flow cytometry.

In assay [3] the target is T3, human SIRP-alpha variant 1 (V1) on monocytes and macrophages of V1 homozygous donors (human, UniProt P78324 31-146).
T3 construct: the whole native protein stood on the cells; also called SIRPa V1
T3 sequence (P78324 31-146, change not shown): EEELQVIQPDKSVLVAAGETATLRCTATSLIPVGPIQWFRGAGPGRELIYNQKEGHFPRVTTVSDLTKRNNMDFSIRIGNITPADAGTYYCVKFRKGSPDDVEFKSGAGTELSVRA
Described as above. Here is the method: as §1

The target of assay [4] is T4, human SIRP-alpha V1/V5 (heterozygous) on monocytes and macrophages of V1/V5 donors (human).
T4 construct: Not a complex: the two allelic forms carried together by the cells of heterozygous donors
T4 sequence (P78324 whole entry): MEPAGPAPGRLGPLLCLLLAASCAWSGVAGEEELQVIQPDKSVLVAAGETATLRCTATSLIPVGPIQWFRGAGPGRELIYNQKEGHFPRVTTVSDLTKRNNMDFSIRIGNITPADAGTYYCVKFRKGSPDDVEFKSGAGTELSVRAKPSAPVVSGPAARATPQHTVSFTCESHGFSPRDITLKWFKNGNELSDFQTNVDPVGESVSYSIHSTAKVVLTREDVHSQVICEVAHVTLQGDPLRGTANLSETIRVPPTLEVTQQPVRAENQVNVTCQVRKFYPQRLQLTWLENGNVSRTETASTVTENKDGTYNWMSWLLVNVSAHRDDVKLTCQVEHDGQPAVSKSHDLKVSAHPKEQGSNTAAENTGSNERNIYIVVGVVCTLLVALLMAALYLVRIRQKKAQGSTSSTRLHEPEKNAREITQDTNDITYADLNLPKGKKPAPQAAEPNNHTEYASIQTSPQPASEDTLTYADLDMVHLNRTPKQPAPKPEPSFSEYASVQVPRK
Described as above. The method, then: as §1

T1 sequence (Q9P1W8 62-360 limits assumed): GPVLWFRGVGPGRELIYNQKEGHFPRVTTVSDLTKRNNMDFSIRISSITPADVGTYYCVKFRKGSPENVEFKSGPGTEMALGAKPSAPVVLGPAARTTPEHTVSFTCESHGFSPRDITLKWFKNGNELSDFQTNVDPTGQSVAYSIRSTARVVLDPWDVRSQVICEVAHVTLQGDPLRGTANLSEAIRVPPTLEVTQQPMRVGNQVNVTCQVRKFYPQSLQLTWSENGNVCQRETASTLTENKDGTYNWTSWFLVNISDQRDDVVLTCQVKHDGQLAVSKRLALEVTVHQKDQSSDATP

B1: 1H9 (parental mouse anti-human SIRPa monoclonal antibody) (antibody, V domains shown)
VH: QVQLQQPGAERVKPGASVKMSCKASGYTFTSYWITWVKQRPGQGLEWIGDIYPGSGSTNHIEKFKSKATLTVDTSSNTAYMQLSRLTSEDSAVYYCATGYGSSYGYFDYWGQGTTLTVSS
VL: DIQMTQSPASLSASVGETVTITCRASENIYSYLAWYQQKQGKSPQLLVYTAKTLAEGVPSRFSGSGSGTQFSLKINSLQPEDFGNYYCQHQYGPPFTFGSGTRLVIK
notes: Hybridoma-derived mouse antibody; also called mouse 1H9
Consider B1, for which the binding result in assay [1] is on record as “no binding (tested: about 3000 ng/mL)”.

B2: Humanized 1H9 (antibody, human IgG1, kappa, N297A, V domains shown)
VH: QVQLVQSGAEVKKPGASVKVSCKASGYTFTSYWITWVKQAPGQGLEWIGDIYPGSGSTNHIEKFKSKATLTVDTSISTAYMELSRLRSDDTAVYYCATGYGSSYGYFDYWGQGTLVTVSS
VL: DIQMTQSPSSLSASVGDRVTITCRASENIYSYLAWYQQKPGKAPKLLIYTAKTLAEGVPSRFSGSGSGTDFTLTISSLQPEDFATYYCQHQYGPPFTFGQGTKLEIKR
notes: also called Hu1H9-G1; humanized 1H9-G1
As to B2, the “IC50 (read off the curve)” value in assay [2] was approximately 20 µg/mL; in assay [3], ~8 µg/mL and ~4 µg/mL; in assay [4] it was approximately 3 µg/mL.

B3: 3C2 (parental mouse anti-human SIRPa monoclonal antibody) (antibody, V domains shown)
VH: QVQLQQPGAELVRPGSSVKLSCKASGYTFTSYWMHWVKQRPIQGLEWIGNIDPSDSDTHYNQKFKDKATLTVDKSSSTAYMQLSSLTSEDSAVYYCARGYSKYYAMDYWGQGTSVTVSS
VL: DVLMTQTPLSLSVSLGDQASISCRSSQSIVHSYGNTYLEWYLQKPGQSPKLLIYKVSNRFSGVPDRFSGSGSGTDFTLKISRVEAEDLGVYYCFQGSHVPYTFGGGTKLEIK
notes: Hybridoma-derived mouse antibody; also called mouse 3C2
In the case of B3, the binding result in assay [1] was “no binding (tested: about 3000 ng/mL)”.

The values above are taken from patent US20210171654A1 (FORTY SEVEN, published 2021).
